Laboratory results published in the supplement of paper PMC10567573.

B1: PPFIA4 (parent)
chain: VMTLPSDLRKHRRKLLSPVSREEN

Variants of: B1
Assay: protein stability index of a GFP-peptide fusion (GPS, HEK-293T) (PSI 1-6); higher = more stable
Conditions: c terminus: a fixed tail appended
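Further: lentivirally expressed fusions sorted by FACS into six bins by GFP to DsRed ratio, PSI derived from sequencing read proportions per bin multiplied by bin number.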

| Variant | protein stability index |
| --- | --- |
| E23M | 3.29 |
| M2K | 3.82 |
| S6L | 3.38 |
| R12C | 3.34 |
| L4C | 4.31 |
| H11C | 3.69 |
| S20K | 3.92 |
| L16S | 4.43 |
| E22C | 2.8 |
| L4M | 3.69 |
| S6K | 3.24 |
| L8R | 4.15 |
| E22R | 3.66 |
| D7S | 2.98 |
| T3H | 3.52 |
| S17W | 2.9 |
| K10D | 4.32 |
| L16V | 3.84 |
| S20A | 3.98 |
| M2S | 3.69 |
| K14E | 4.07 |

| Variant | protein stability index |
| --- | --- |
| S17N | 3.88 |
| E22M | 3.25 |
| V1H | 4.25 |
| R9N | 4.18 |
| E22K | 3.67 |
| V1Y | 3.21 |
| E23P | 3.5 |
| R13V | 3.78 |
| L8F | 3.59 |
| E22T | 3.22 |
| V19L | 3.43 |
| L4R | 3.25 |
| M2H | 4.02 |
| K14W | 2.43 |
| M2P | 3.93 |
| N24E | 4.31 |
| R12M | 3.47 |
| T3S | 3.71 |
| E22I | 3.02 |
| P18H | 3.52 |
| S6T | 3.52 |

| Variant | protein stability index |
| --- | --- |
| L16P | 4.12 |
| K10P | 4.05 |
| M2D | 4.71 |
| S17T | 4.23 |
| M2Y | 3.15 |
| R21V | 3.91 |
| R13C | 3.49 |
| L15N | 4.38 |
| L15E | 4.22 |
| R12W | 2.73 |
| S17I | 3.45 |
| S20L | 3.44 |
| P5G | 3.01 |
| R9K | 4 |
| V19R | 3.69 |
| E23N | 3.14 |
| R9I | 3.69 |
| S17Y | 4.07 |
| L15C | 3.55 |
| N24G | 3.23 |
| L15G | 4.39 |

| Variant | protein stability index |
| --- | --- |
| E23W | 2.44 |
| R21Q | 4.36 |
| D7A | 2.24 |
| E22L | 2.26 |
| V1T | 4.25 |
| R9E | 4.11 |
| P18D | 4.7 |
| E23R | 3.06 |
| R9S | 4.14 |
| L15Y | 4.06 |
| P5M | 2.47 |
| P18C | 3.51 |
| K14R | 3.32 |
| L8H | 3.9 |
| P18W | 2.47 |
| E23S | 3.93 |
| E23H | 3.41 |
| K14G | 4.33 |
| V19H | 4.11 |
| D7R | 3.31 |
